Data reported in US9206457B2, “Utilization of pharmacological chaperones to improve manufacturing and purification of biologics” (Amicus Therapeutics, Inc., priority 2009, dated 2015).
Changes are numbered by the printed parent chain.

Tests used:
[1] = target: T1, recombinant human GCase (Cerezyme®) (Homo sapiens, UniProt P04062, R534H); assay: GCase activity in human plasma at 37° C. (4-MUG); type: in vitro ADME; settings: human plasma, 0.5 μM GCase, no chaperone
T1 construct: purchased Genzyme Corp
T1 sequence (P04062 40-536 R534H): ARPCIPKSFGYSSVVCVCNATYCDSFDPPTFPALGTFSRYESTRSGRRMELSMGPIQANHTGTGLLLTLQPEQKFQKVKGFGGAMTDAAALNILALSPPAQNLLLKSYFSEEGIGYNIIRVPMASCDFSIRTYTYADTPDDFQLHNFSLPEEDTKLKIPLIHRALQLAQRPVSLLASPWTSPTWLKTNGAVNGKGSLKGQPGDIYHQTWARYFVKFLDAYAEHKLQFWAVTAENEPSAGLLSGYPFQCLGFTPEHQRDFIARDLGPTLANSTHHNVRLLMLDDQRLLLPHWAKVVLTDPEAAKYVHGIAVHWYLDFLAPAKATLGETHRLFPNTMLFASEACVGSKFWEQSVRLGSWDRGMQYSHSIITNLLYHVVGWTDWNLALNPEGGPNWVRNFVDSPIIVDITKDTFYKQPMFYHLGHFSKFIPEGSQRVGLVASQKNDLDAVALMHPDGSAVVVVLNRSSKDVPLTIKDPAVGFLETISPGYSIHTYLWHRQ
Description: FIG. 10 depicts the effects of IFG on recombinant human GCase (GCase; Cerezyme®, Genzyme Corp.) activity in human plasma at 37° C. GCase activity was evaluated to assess the ability of an ASSC to prolong the activity of GCase in human plasma over time. Cerezyme (0.5 μM) was incubated in human plasma with increasing concentrations of IFG (3 μM, 30 μM, or 100 μM) at 37° C. over 4 hours. Samples were assayed for GCase enzyme activity using 4-MU-β-glucose at 0.25, 0.5, 1, 2 and 4 hours and the residual GCase activity was expressed as % of initial activity.
The activity of GCase (0.5 μM; Cerazyme®) at 37° C. in human plasma was assessed for increasing concentrations of IFG (3 μM, 30 μM, and 100 μM) as a function time using the substrate 4-MUG.

[2] = target: T2, acid β-glucosidase (GCase; Cerezyme®) (Homo sapiens, UniProt P04062, R534H); assay: SYPRO Orange thermal stability assay (heat denaturation) of GCase; type: binding; settings: pH 5.2 versus pH 7.4, no chaperone
T2 construct: purchased Genzyme Corp
T2 sequence (P04062 40-536 R534H): T1 sequence (P04062 40-536 R534H)
Description: FIG. 4 depicts the results of a thermal stability assay that utilizes heat to induce protein denaturation, which is monitored using a SYPRO Orange dye that fluoresces upon binding to hydrophobic amino acids (which are not exposed in a folded protein). Isofagomine increases acid β-glucosidase thermostability as evident by increases in melting temperature in a dose-dependent manner. The experiment was conducted at pH 7.4.
FIG. 8 depicts the stability of recombinant human GCase (Cerazyme®, Genzyme Corp.) at neutral pH (7.4) or acidic pH (5.2) in the presence or absence of 10 μM of IFG as determined in a thermal stability assay. The thermal stability assay utilizes heat to induce protein denaturation, which is monitored using a SYPRO Orange dye that fluoresces upon binding to hydrophobic amino acids (which are not exposed in a folded protein).
A thermal stability experiment as generally described in Example 1 was performed on three compositions of GCase (Cerezyme®):
A thermal stability experiment as generally described in Examples 1 and 4 was performed on three compositions of GCase (Cerezyme®):
Protein denaturation was monitored using SYPRO Orange dye which fluoresces when bound to exposed hydrophobic amino acids.

B1: GCase: recombinant human GCase (Cerezyme®, Genzyme Corp.) (protein, UniProt P04062 40-536, looked up)
Lysosomal acid …: T1 sequence (P04062 40-536 R534H) with H495R
modifications: imiglucerase
B1 was tested, and the “Time by which GCase is completely inactive” value [1] was ≤ 1 h, the “Time by which most GCase is inactivated” value [1] was ≤ 30 min and the “Stability of GCase at acidic versus neutral pH (thermal stability assay)” value [2] was “more stable at acidic (lysosomal) pH than at neutral pH”.
